± gives the standard deviation of the averaged measurements.
System: ATP
Experiment: switch fluorescence ratio, 500 uM ATP over buffer (Cy3 cluster intensity, sum of 5 cycles each) (fold (ratio)); higher = stronger signal-on switching upon ATP binding; sequences stand for … in TCGTCGGCAGCGTCAGATGTGTATAAGAGACAGTTTTTTTTTTTTTTTTTTTTTTTTT…TC
Details: aptamer strand: ATP DNA aptamer (quencher-CACCTGGGGGAGTATTGCGGAGGAAGG + anchor), 100 nM annealed; ATP concentration: 500 uM
Outline: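 Five buffer/ATP imaging cycles were run on Cy3-labelled switching-strand clusters on a modified Illumina MiSeq flow-cell, with NaOH stripping and re-annealing between cycles. In each cycle, clusters annealed to 100 nM quencher-labelled ATP aptamer were imaged in selection buffer, then after 15 min with 500 uM ATP at 22 °C. Per cluster, the fluorescence ratio is summed target-cycle over summed buffer-cycle Cy3 intensity, averaged per switch-domain sequence. Only clusters within 100-1000 RFU were kept.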
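Note: ATP exposure 15 min at 22 °C before imaging.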

TTTCAATAGG
switch fluorescence ratio: 1.01 ± 0.024

TTTCAATTTA
switch fluorescence ratio: 0.996 ± 0.011

TTTCACACTC
switch fluorescence ratio: 1.02 ± 0.03

TTTCACAGGA
switch fluorescence ratio: 1.03 ± 0.025

TTTCACCGGG
switch fluorescence ratio: 1.16 ± 0.17

TTTCACGAGC
switch fluorescence ratio: 0.993 ± 0.091

TTTCACGGTA
switch fluorescence ratio: 1.15 ± 0.11

TTTCAGAGTC
switch fluorescence ratio: 1.01 ± 0.064

TTTCAGATGG
switch fluorescence ratio: 1.006 ± 0.0093

TTTCAGCT
switch fluorescence ratio: 0.977 ± 0.013

TTTCAGCTTA
switch fluorescence ratio: 1.15 ± 0.15

TTTCAGGGGT
switch fluorescence ratio: 1.86 ± 0.81

TTTCAGGTCC
switch fluorescence ratio: 1.03 ± 0.065

TTTCAGGTTA
switch fluorescence ratio: 1.06 ± 0.012

TTTCAGTCCC
switch fluorescence ratio: 0.993 ± 0.052

TTTCAGTGCT
switch fluorescence ratio: 0.9947 ± 0.005

TTTCATATGC
switch fluorescence ratio: 0.995 ± 0.073

TTTCATCTTT
switch fluorescence ratio: 1.04 ± 0.078

TTTCATGATC
switch fluorescence ratio: 1 ± 0.026

TTTCATGGCT
switch fluorescence ratio: 1.01 ± 0.035

TTTCATTCTC
switch fluorescence ratio: 0.991 ± 0.01

TTTCCATGGA
switch fluorescence ratio: 0.984 ± 0.029

TTTCCATTAA
switch fluorescence ratio: 1 ± 0.044

TTTCCCCAAT
switch fluorescence ratio: 1.07 ± 0.063

TTTCCCTGTT
switch fluorescence ratio: 1.05 ± 0.076

TTTCCCTTCT
switch fluorescence ratio: 1.05 ± 0.06

TTTCCGACGG
switch fluorescence ratio: 1.57 ± 0.79

TTTCCGGACG
switch fluorescence ratio: 1.02 ± 0.037

TTTCCGGCGG
switch fluorescence ratio: 1.12 ± 0.09

TTTCCGGGGA
switch fluorescence ratio: 1.18 ± 0.29

TTTCCTATAA
switch fluorescence ratio: 1.13 ± 0.21

TTTCGATGGT
switch fluorescence ratio: 0.959 ± 0.019

TTTCGCCATA
switch fluorescence ratio: 2.39 ± 2

TTTCGCTC
switch fluorescence ratio: 1.06 ± 0.019

TTTCGCTCGT
switch fluorescence ratio: 0.9628 ± 0.003

TTTCGGACGC
switch fluorescence ratio: 1.35 ± 0.33

TTTCGGAGGG
switch fluorescence ratio: 0.982 ± 0.034

TTTCGGAGTT
switch fluorescence ratio: 1.05 ± 0.071

TTTCGGATAA
switch fluorescence ratio: 1.02 ± 0.056

TTTCGGATGC
switch fluorescence ratio: 1.22 ± 0.26

TTTCGGATTC
switch fluorescence ratio: 1.08 ± 0.059

TTTCGGGACC
switch fluorescence ratio: 1.04 ± 0.031

TTTCGGGACG
switch fluorescence ratio: 0.987 ± 0.035

TTTCGGGCAG
switch fluorescence ratio: 1.02 ± 0.037

TTTCGGGGAT
switch fluorescence ratio: 1.03 ± 0.038

TTTCGGGTAG
switch fluorescence ratio: 1.011 ± 0.0014

TTTCGGTCTG
switch fluorescence ratio: 1.006 ± 0.0075

TTTCGGTGCT
switch fluorescence ratio: 1.03 ± 0.049

TTTCGGTTAA
switch fluorescence ratio: 1.09 ± 0.11

TTTCGGTTCA
switch fluorescence ratio: 1.037 ± 0.0044

TTTCGTAATT
switch fluorescence ratio: 1 ± 0.024

TTTCGTATAC
switch fluorescence ratio: 2.1 ± 0.041

TTTCGTCCTT
switch fluorescence ratio: 1.18 ± 0.014

TTTCGTCGAA
switch fluorescence ratio: 1.017 ± 0.01

TTTCGTGCGG
switch fluorescence ratio: 1 ± 0.015

TTTCGTGTGT
switch fluorescence ratio: 0.97 ± 0.0097

TTTCGTTCAT
switch fluorescence ratio: 1.033 ± 0.0078

TTTCGTTCTC
switch fluorescence ratio: 1.008 ± 0.0045

TTTCGTTGAA
switch fluorescence ratio: 0.9964 ± 0.0069

TTTCTAACGT
switch fluorescence ratio: 1.001 ± 0.0026

TTTCTAAGGG
switch fluorescence ratio: 1.07 ± 0.061

TTTCTAAGTC
switch fluorescence ratio: 0.9559 ± 0.006

TTTCTAATTT
switch fluorescence ratio: 1.02 ± 0.015

TTTCTACGTA
switch fluorescence ratio: 1.13 ± 0.14

TTTCTAGACA
switch fluorescence ratio: 1.02 ± 0.021

TTTCTAGTCT
switch fluorescence ratio: 0.935 ± 0.0085

TTTCTATGGA
switch fluorescence ratio: 1.0135 ± 0.0006

TTTCTATTTT
switch fluorescence ratio: 1.02 ± 0.066

TTTCTCAGAG
switch fluorescence ratio: 0.995 ± 0.016

TTTCTCCGGT
switch fluorescence ratio: 1.53 ± 0.39

TTTCTCGGCA
switch fluorescence ratio: 1.44 ± 0.42

TTTCTCTGAG
switch fluorescence ratio: 1.04 ± 0.033

TTTCTGACGT
switch fluorescence ratio: 1.09 ± 0.057

TTTCTGGGTC
switch fluorescence ratio: 1.02 ± 0.068

TTTCTGTAAG
switch fluorescence ratio: 1.01 ± 0.036

TTTCTGTGGA
switch fluorescence ratio: 0.9892 ± 0.0091

From the supplement of paper PMC10126150
